Earlier results on 2 substances are cited in paper PMC8811192.

Read-outs that look alike come from different tables or passages of the source.

Data set [1] concerns the target OrxA (Homo sapiens) (UniProt O43612).
In data set [2] the target is OrxB (Homo sapiens) (UniProt O43612).
The target in data set [3] is OrxA (Homo sapiens) (UniProt O43612). This is another data set of the same source.

What is called Kd is the free concentration of one partner at which half of the binding sites on the other are occupied at equilibrium, for simple one-to-one binding. As for OrxR1 (from UniProt O43613), the Kd in data set [1] was 25 nM.

Turning to OrxR2 (from UniProt O43614), the Kd in data set [2] and in data set [3] was 40 nM throughout.
